We go through three substances from PMC3711080 (Bioconjugate chemistry, 2011).

The target in one assay is CXCR4 (Homo sapiens, UniProt P61073). Kind of assay: Competition binding against 250 nM of peptide 3, flow cytometry. The conditions noted are these: ratio of KD values, higher affinity of 1. For orientation: Flow cytometry measures light scatter and fluorescence of single cells or particles in a stream.
In assay [1] the target is chemokine receptor 4 (CXCR4) (human (endogenous in MDAMB231)) (UniProt P61073). Kind of assay: flow cytometry on cells.

One may read the Kd as the equilibrium constant for the complex coming apart. A higher Kd goes with weaker binding.

Chain of chemokine receptor 4 (CXCR4) (human (endogenous in MDAMB231)) (P61073 whole entry): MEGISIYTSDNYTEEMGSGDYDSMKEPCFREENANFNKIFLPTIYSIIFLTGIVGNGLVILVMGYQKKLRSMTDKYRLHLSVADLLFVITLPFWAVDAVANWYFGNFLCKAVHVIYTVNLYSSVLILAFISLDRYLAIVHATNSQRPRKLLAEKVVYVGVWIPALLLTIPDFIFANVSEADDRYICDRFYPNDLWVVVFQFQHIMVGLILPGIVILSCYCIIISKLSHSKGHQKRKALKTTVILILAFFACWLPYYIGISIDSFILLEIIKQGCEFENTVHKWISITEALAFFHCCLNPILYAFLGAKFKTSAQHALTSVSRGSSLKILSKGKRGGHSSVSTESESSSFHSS
Chain of CXCR4 (P61073 whole entry): as above

For Ac-TZ14011 [compound 1], at CXCR4, the “receptor affinity relative to derivatives 3 and 4” value is “approximately 20 times”.
For “Ac-TZ14011 labeled with the MSAP reagent (peptide 3)”, in assay [1], the Kd was determined as 187 nM and the MFIR (mean fluorescence intensity ratio), MDAMB231^CXCR4+ cells was found to be 45.3.
For “Ac-TZ14011 labeled with the MSAP reagent, indium-labeled (peptide 4)” the same measures were 177 nM and 56.7.
